Assay results: patent publication US20220144895A1, “DE NOVO DESIGN OF TUNABLE PH-DRIVEN CONFORMATIONAL SWITCHES” (University of Washington, priority 2019, published 2022)
Where a chain is given by its changes, count along the chain named. In names and notes the source's numbering stands. Each block holds one molecule with its values, some of them ahead of it.

Assays:
[1] = system: U2-OS cells; settings: Bafilomycin A 1 μM, Chloroquine 50 μM as controls; cited from earlier work
[2] = molecular target: the molecule itself; test: native mass spectrometry; homotrimer
Procedure: Oligomeric state was assessed by size-exclusion chromatography (SEC) and native mass spectrometry (24).
(§1) Samples were buffer exchanged twice into 200 mM ammonium acetate (NH₄Ac; MilliporeSigma) using Micro Bio-Spin P-6 columns (Bio-Rad). Protein concentrations were determined by UV absorbance using a Nanodrop 2000c spectrophotometer (Thermo Fisher Scientific) and diluted to make up a 10-fold stock solution (50 μM and 16.7 μM monomer and trimer concentration, respectively). 1 μL of this solution was mixed with 9 μL 200 mM NH₄Ac/50 mM triethylammonium acetate (TEAA; MilliporeSigma), adjusted with acetic acid (Fisher Scientific) to obtain the desired final pH and incubated on ice for 30 min.

[3] = molecular target: T1, pRO-4 Chain B (heterodimer pRO-4), hexahistidine tag cleaved; test: SEC and native mass spectrometry; heterodimer
T1 construct: The tag was removed for all pH experiments
T1 chain: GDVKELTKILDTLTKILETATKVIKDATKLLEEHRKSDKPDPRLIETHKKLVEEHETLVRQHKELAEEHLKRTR

[4] = Native mass spectrometry of pH-induced changes in oligomeric state; assay type: physicochemical
Procedure: Samples were buffer exchanged twice into 200 mM ammonium acetate (NH4Ac; MilliporeSigma) using Micro Bio-Spin P-6 columns (Bio-Rad). Protein concentrations were determined by UV absorbance using a Nanodrop 2000c spectrophotometer (Thermo Fisher Scientific) and diluted to make up a 10-fold stock solution (50 μM and 16.7 μM monomer and trimer concentration, respectively). 1 μL of this solution was mixed with 9 μL 200 mM NH4Ac/50 mM triethylammonium acetate (TEAA; MilliporeSigma), adjusted with acetic acid (Fisher Scientific) to obtain the desired final pH and incubated on ice for 30 min. […] 5 μL samples were filled into an in-house pulled glass capillary and ionized by nESI at a monomer or a trimer concentration of 5 μM or 1.67 μM respectively. All pH titration data were acquired on an in-house modified SYNAPT® G2 HDMS (Waters Corporation) with a surface-induced dissociation (SID) device incorporated between a truncated trap traveling wave ion guide and the ion mobility cell (39). The following instrument parameters were used spray voltage 0.9-1.3 kV; sampling cone, 20 V; extraction cone, 2 V; source temperature, room temperature; trap gas flow, 4 mL/min; trap bins, 45V. The data were processed with MassLynx™ v4.1 and DriftScope™ v2.1. For relative quantification, charge state series were extracted from DriftScope™, and smoothed spectra (mean; window 20; number of smooths 20) were integrated.
Python scripts were written to generate theoretical models according Equation 1, and curve-fitting to native mass spectrometry data (FIGS. 1, 3, 5) according to Equation 2 by nonlinear least squares using curve fit from scipy.optimize. The free energy estimates for individual n, m, and l layers used in Equation 1 modeling were estimated by solving linear equations as follows: values for the free energy of folding for designs pRO-2 and variants were estimated from GdmCl denaturation experiments (FIG. 11); each of these designs have different numbers of n, m, and l layers, thus series of linear equations relating the number of each layer type to the total free energies of folding were solved to estimate dG values of the individual layers of each type.

[5] = Size-exclusion chromatography (SEC); assay type: physicochemical; settings: high concentration
Procedure: Cells were lysed by microfluidization in the presence of 1 mM PMSF. Lysates were clarified by centrifugation at 24,000 ref at 4° C. for at least 30 minutes. Proteins were purified by Immobilized metal affinity chromatography (IMAC): supernatant was applied to Ni-NTA (Qiagen) columns pre-equilibrated in lysis buffer. The column was washed twice with 15 column volumes (CV) of wash buffer (25 mM Tris pH 8.0 at room temperature, 300 mM NaCl, 40 mM Imidazole), followed by 3-5 CV of high-salt wash buffer (25 mM Tris pH 8.0 at room temperature, 1 M NaCl, 40 mM Imidazole) then an additional 15 CV of wash buffer. Protein was eluted with 250 mM Imidazole, and buffer-exchanged into 25 mM Tris pH 8.0 and 150 mM NaCl without imidazole for cleavage of the N-terminal hexahistidine tag by purified hexahistidine-tagged TEV protease (with the exception of design pRO-1, which was cleaved using restriction grade thrombin (EMD Millipore 69671-3) at room temperature for 4 hours or overnight, using a 1:3000 dilution of enzyme into sample solution). A second Ni-NTA step was used to remove hexahistidine tag, uncleaved sample and the hexahistidine-tagged TEV protease, and the cleaved proteins were then […], 150 mM NaCl, and 2% glycerol.

[6] = molecular target: the molecule itself; test: native mass spectrometry at the indicated pH
Procedure: as §1

[7] = Circular dichroism: GdmCl chemical denaturation and temperature melts; settings: CD at 222 nm, PBS pH 7.4 or Na2PO4-Citrate at lower pH

Molecule: CO/C1=C\C(C)=C\[C@@H](C)[C@@H](O)[C@@H](C)C/C(C)=C/C=C/[C@H](OC)[C@@H]([C@@H](C)[C@@H](O)[C@H](C)[C@@]2(O)C[C@@H](O)[C@H](C)[C@@H](C(C)C)O2)OC1=O [Bafilomycin A]
effect on lysosomal pH (known drugs) [1]: known to neutralize lysosomal pH

Molecule: CCN(CC)CCCC(C)Nc1ccnc2cc(Cl)ccc12 (centres unmarked) [Chloroquine]
effect on lysosomal pH (known drugs) [1]: known to neutralize lysosomal pH

B1: pRO-2.1 subunit (designed binder)
chain: SEYEIRKALEELKAALAELKRATASLRAITEELKKNPSEDALVEHNRAIVEHNAIIVEVLRIIAAVLELIVRAIK
notes: forms a homotrimer; Tag-free form
binding result [2]: binds

B2: pRO-2.5 subunit (designed binder)
chain: B1 chain with A15S, L16T, I29S, H45N, A48L, V59N, L60N
notes: forms a homotrimer; Tag-free form; also called PDB 6MSR
binding result [2]: binds

binding result [3]: binds
B3: pRO-4 Chain A (heterodimer pRO-4) (designed binder)
chain: MDEEDHLKKLKTHLEKLERHLKLLEDHAKKLEDILKERPEDSAVKESIDELRRSIELVRESIEIFRQSVEEEE

B4: pRO-1: designed homotrimer, SEQ ID NO: 13-14 (protein)
chain 1: MGSSHHHHHHSSGLVPRGSHMGTLKEVLERLEEVLRRHREVAREHQRWAREHEQWVRDDPNSAKWIAESTRWILETTDAISRTADVLAEAIRVLAESD
chain 2: GSHMGTLKEVLERLEEVLRRHREVAREHQRWAREHEQWVRDDPNSAKWIAESTRWILETTDAISRTADVLAEAIRVLAESD
oligomeric state at pH 7 / neutral pH ([4]; native MS): primarily dimeric | oligomeric state by SEC [5]: trimeric at high concentration

B5: pRO-2 I56V subunit (designed binder)
chain: GSEYEIRKALEELKAATAELKRATASLRAITEELKKNPSEDALVEHNRAIVEHNAIVVEHNRIIAAVLELIVRAIK
notes: forms a homotrimer; Tag-free form, and the entry already carries I56V
binding result [6]: binds

B6: pRO-2 A54M: pRO-2 mutant, SEQ ID NO: 19-20 (protein)
chain 1: MGSHHHHHHGSGSENLYFQGSEYEIRKALEELKAATAELKRATASLRAITEELKKNPSEDALVEHNRAIVEHNMIIVEHNRIIAAVLELIVRAIK
chain 2: B5 chain with A55M, V57I
cooperativity of the pH-induced transition ([4]; native MS at different pH values): Neither of the mutations substantially affect the cooperativity | pH transition point of disassembly (pH set point, pH0) ([4]; native MS, evaluated from pH 7 down to pH 3): decreases the transition pH | folding stability by GdmCl denaturation [7]: increases stability
